Data reported in patent US20160168251A1 (MorphoSys, published 2016).

T1: human NPRC on HEK293 cells in the presence of BNP (human, UniProt P17342 27-541; P16860 103-134)
T1 construct: whole, on cells;mature; also called HEK NPRC cells + 100 nM BNP
T1 sequence (looked up): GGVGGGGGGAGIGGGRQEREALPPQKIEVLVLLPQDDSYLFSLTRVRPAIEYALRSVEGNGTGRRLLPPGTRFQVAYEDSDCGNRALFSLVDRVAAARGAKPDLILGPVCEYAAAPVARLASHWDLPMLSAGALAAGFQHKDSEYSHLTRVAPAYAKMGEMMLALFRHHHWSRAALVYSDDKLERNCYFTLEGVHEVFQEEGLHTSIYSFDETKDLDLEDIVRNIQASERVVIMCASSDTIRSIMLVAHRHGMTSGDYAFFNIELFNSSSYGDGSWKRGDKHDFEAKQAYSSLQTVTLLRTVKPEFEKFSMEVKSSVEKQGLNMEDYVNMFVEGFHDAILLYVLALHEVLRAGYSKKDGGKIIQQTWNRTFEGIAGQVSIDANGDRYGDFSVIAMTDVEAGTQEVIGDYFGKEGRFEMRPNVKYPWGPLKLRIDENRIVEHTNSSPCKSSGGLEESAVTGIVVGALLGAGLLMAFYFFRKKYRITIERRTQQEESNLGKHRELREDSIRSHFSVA
T1 sequence (peptide, looked up): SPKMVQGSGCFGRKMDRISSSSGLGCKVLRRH

T2: human NPRA on HEK293 cells bound to ANP (human, UniProt P01160 124-151)
T2 sequence: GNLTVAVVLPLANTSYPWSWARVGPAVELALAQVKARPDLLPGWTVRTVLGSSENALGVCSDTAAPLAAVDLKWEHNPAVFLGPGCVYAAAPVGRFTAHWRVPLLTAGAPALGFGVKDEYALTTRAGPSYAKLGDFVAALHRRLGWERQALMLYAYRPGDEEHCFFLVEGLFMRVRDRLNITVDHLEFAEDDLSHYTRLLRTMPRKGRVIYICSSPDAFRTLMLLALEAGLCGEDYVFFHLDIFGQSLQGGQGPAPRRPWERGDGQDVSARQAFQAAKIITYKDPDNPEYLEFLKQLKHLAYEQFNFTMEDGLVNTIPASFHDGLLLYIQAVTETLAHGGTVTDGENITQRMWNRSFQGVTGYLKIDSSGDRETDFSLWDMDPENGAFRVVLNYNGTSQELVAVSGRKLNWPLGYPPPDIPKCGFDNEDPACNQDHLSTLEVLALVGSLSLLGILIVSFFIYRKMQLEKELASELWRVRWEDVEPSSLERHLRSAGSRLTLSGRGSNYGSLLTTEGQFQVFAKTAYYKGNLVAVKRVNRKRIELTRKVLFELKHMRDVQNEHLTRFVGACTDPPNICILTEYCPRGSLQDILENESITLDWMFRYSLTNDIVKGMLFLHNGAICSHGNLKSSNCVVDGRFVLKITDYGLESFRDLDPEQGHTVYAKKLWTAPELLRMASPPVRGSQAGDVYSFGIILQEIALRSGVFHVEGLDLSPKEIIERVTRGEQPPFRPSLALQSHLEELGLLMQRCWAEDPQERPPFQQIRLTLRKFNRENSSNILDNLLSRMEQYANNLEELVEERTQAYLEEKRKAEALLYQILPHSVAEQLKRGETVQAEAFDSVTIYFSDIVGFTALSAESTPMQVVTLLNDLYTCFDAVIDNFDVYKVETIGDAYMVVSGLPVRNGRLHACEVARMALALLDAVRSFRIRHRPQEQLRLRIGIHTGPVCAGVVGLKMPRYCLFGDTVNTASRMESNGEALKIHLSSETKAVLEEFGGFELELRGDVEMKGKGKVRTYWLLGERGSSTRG
T2 sequence (peptide): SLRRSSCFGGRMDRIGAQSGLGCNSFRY

T3: human NPRC on HEK293 cells, without added ligand (human, UniProt P17342 27-541)
T3 construct: whole, on cells; also called HEK NPRC cells; natriuretic peptide receptor C
T3 sequence (looked up): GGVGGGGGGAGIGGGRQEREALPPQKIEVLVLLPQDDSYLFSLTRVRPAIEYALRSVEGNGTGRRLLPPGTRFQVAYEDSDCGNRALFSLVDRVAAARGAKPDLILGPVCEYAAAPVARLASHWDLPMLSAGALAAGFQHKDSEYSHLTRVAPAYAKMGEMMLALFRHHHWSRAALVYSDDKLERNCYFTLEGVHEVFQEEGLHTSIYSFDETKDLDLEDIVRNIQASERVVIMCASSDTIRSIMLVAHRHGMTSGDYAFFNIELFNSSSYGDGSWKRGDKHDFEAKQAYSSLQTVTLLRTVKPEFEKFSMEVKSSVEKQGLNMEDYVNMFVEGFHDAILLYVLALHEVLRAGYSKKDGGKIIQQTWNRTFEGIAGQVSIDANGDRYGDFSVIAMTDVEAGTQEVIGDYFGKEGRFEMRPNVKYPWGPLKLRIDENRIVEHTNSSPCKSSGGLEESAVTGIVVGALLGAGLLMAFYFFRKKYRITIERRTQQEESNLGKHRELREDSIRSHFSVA

T4: human NPRC on HEK293 cells in the presence of ANP (human, UniProt P17342 27-541; P01160 124-151)
T4 construct: whole, on cells;mature; also called HEK NPRC cells + 100 nM ANP
T4 sequence (looked up): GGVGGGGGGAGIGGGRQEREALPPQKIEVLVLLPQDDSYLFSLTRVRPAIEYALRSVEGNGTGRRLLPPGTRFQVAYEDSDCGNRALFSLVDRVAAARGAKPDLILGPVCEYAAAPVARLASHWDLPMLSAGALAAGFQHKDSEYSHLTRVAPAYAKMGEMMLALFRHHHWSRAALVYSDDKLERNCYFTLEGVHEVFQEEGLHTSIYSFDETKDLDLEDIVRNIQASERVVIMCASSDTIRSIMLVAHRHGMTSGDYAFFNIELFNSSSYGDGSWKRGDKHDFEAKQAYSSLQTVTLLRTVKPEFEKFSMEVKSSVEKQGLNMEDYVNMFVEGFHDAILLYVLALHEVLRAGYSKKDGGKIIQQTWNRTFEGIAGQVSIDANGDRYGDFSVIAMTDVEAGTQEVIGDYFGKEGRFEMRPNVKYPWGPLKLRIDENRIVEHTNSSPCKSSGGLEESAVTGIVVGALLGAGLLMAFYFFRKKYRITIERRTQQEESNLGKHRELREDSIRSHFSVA
T4 sequence (peptide, looked up): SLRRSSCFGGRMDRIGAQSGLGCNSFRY


How the values were obtained:
[1] = biological target: T5, NPRA-Fc fusion protein bound to BNP (human, UniProt P16860 103-134); assay: SPR (Biacore 3000), NPRA-Fc amine-coupled on CM5, IgG with 100 nM human BNP
T5 construct: mature; Receptor-ligand complex; also called NPRA-Fc in the presence of BNP
Procedure: In another assay, the purified human NPRA-Fc fusion protein construct is used to develop a surface plasmon resonance (BIAcore) assay for determining affinity and kinetic constants for the antibodies. NPRA-Fc in 10 mM sodium acetate buffer, pH 5.5 is immobilized on a CM5 chip in a Biacore 3000 instrument (GE Healthcare, Biacore, Inc.) through amine coupling at a density of 1000 RU. […] The collected association and dissociation data from each experiment is globally fitted with the association (kₐ) and dissociation (kd) rates fit simultaneously.

[2] = biological target: T1, human NPRC on HEK293 cells in the …; assay: FACS, HEK NPRC cells with 100 nM BNP
Procedure: (§1) HEK NPRA cells are detached with Accutase (PAA Laboratories GmbH, Cat. No. L11-007, Austria), harvested by centrifugation (900 rpm, 4 minutes) and resuspended in FACS buffer (PBS/3% FCS/0.02% NaN3) to a final concentration of 10⁶ cells/ml. 100 μl of the cell suspension is transferred to each well of a 96 round bottom plate (TC Microwell 96U, Nunc). […] Cells are washed in 150 μl of FACS buffer, pelleted and resuspended in 50 μl of the solution containing the primary antibody comprising a BEL extract of Fabs, a diluted BEL extract or purified antibody diluted in FACS buffer and incubated on ice for 30 min. Cells are washed again in FACS buffer and resuspended in 50 μl of FACS buffer containing the secondary antibody (R-Phycoerythrin-conjugated Affipure F(ab′)₂ Fragment Goat Anti-Human IgG, Dianova) and incubated on ice for 45 min. Cells are washed twice with FACS buffer and resuspended in 200 μl of FACS buffer for analysis in the FACS Array (BD Biosciences).

[3] = biological target: T2, human NPRA on HEK293 cells bound to ANP; assay: cell-based or functional assay
[4] = biological target: T3, human NPRC on HEK293 cells, without …; assay: FACS, HEK NPRC cells without ligand
Procedure: as §1

[5] = biological target: T2, human NPRA on HEK293 cells bound to ANP; assay: FACS, IgG4_Pro on HEK NPRA cells in the presence of 100 nM ANP
Procedure: as §1

[6] = biological target: T4, human NPRC on HEK293 cells in the …; assay: FACS, HEK NPRC cells with 100 nM ANP
Procedure: as §1

[7] = biological target: T6, NPRA-Fc fusion protein bound to ANP (human, UniProt P01160 124-151); assay: SPR (Biacore 3000), NPRA-Fc amine-coupled on CM5, analyte with 100 nM human ANP
T6 construct: mature; Receptor-ligand complex; 'human ANP' is stated for Biacore, plain 'ANP' for ELISA and HXMS; also called NPRA-Fc+ANP

[8] = biological target: T2, human NPRA on HEK293 cells bound to ANP; assay: cell-based or functional assay; remark: listed apart in the source
[9] = biological target: T7, NPRA-Fc fusion protein bound to urodilatin (human, UniProt P01160 120-151); assay: SPR (Biacore 3000), NPRA-Fc amine-coupled on CM5, IgG with 100 nM human urodilatin
T7 construct: Receptor-ligand complex; also called NPRA-Fc in the presence of urodilatin

| Binder | Kd [1] | koff [1] | kon [1] | binding result [2] | fold increase in the potency of ANP (cGMP, HEK NPRA cells, 200 nM IgG4_Pro) [3] | binding result [4] | EC50 [5] | binding result [6] | Kd [7] | koff [7] | kon [7] | cGMP EC50 (nM), titration of the antibody on HEK NPRA cells with 200 pM ANP [8] | Kd [9] | koff [9] | kon [9] |
| --- | --- | --- | --- | --- | --- | --- | --- | --- | --- | --- | --- | --- | --- | --- | --- |
| 5502 IgG4_Pro (antibody, V domains shown, Human IgG4_Pro) VH: QVQLQQSGPGLVKPSQTLSLTCAISGDSVSSRSASWSWIRQSPGRGLEWLGRIYYRSKWYNDYAVSVKSRITINPDTSKNQFSLQLNSVTPEDTAVYYCARMDVPSFRYFDVWGQGTLVTVSS VL: not shown | 0.413 nM | 0.000563 s⁻¹ | 1.36e+06 M⁻¹ s⁻¹ | no binding (tested: 20 nM) | ≤ 10 fold | no binding (tested: 20 nM) | 0.68 nM | no binding (tested: 20 nM) | 0.172 nM | 0.000283 s⁻¹ | 1.65e+06 M⁻¹ s⁻¹ | 2.1 nM | 0.211 nM | 0.000448 s⁻¹ | 2.12e+06 M⁻¹ s⁻¹ |
| 5591 IgG4_Pro (antibody, V domains shown) VH: QVQLQQSGPGLVKPSQTLSLTCAISGDSVSSRSASWSWIRQSPGRGLEWLGRTYYRSHWYYEYAQSVKSRITINPDTSKNQFSLQLNSVTPEDTAVYYCARMDVPSFRYFDVWGQGTLVTVSS VL: not shown | 0.38 nM | 0.00102 s⁻¹ | 2.69e+06 M⁻¹ s⁻¹ | no binding (tested: 20 nM) | ≤ 10 fold | no binding (tested: 20 nM) | 0.73 nM | no binding (tested: 20 nM) | 0.0275 nM | 0.000107 s⁻¹ | 3.88e+06 M⁻¹ s⁻¹ | 0.5 nM | 0.0928 nM | 0.000238 s⁻¹ | 2.56e+06 M⁻¹ s⁻¹ |
| 5592 IgG4_Pro (antibody, V domains shown) VH: QVQLQQSGPGLVKPSQTLSLTCAISGDSVSSRSASWSWIRQSPGRGLEWLGRTYYRSHWYYEYAQSVKSRITINPDTSKNQFSLQLNSVTPEDTAVYYCARMDVPSFRYFDVWGQGTLVTVSS VL: not shown | 0.0459 nM | 0.00034 s⁻¹ | 7.42e+06 M⁻¹ s⁻¹ | no binding (tested: 20 nM) | ≤ 10 fold | no binding (tested: 20 nM) | 0.52 nM | no binding (tested: 20 nM) | 0.011 nM | 0.000106 s⁻¹ | 9.59e+06 M⁻¹ s⁻¹ | 1 nM | 0.0251 nM | 9.94e-05 s⁻¹ | 3.96e+06 M⁻¹ s⁻¹ |
